Results as given in IntAct's records for PubMed 19011093.

B1: RAN GTPase-activating protein 1 (Arabidopsis thaliana (Mouse-ear cress)), Q9LE82 (parent)
chain: MDHSAKTTQNRVLSVKMWPPSKSTRLMLVERMTKNITTPSIFSRKYGLLSVEEAEQDAKRIEDLAFATANKHFQNEPDGDGTSAVHVYAKESSKLMLDVIKRGPQEESEVEVSKDGDVFFDISGGSRAFIEEEEARDLLRPLADPRNSYTKIRFSNRSFGSEAAKFAASVLSSIKDQLTEVDLSDFVAGRPEAEALEVMNMFSSALEGSKLRYLNLSDNALGEKGIRAFASLINSQHDLEELYLMNDGISEDAARAVRELLPSTDKIRVLQFHNNMTGDEGATAIAEIVRECPSLEDFRCSSTRIGSEGGVALAEALEHCSHLKKLDLRDNMFGVEGGIALAKTLSVLTHLTEIYMSYLNLEDEGTEALSEALLKSAPSLEVLELAGNDITVKSTGNLAACIASKQSLAKLNLSENELKDEGTILIAKAVEGHDQLVEVDLSTNMIRRAGARALAQTVVKKNTFKLLNINGNFISEEGIDEVNDMFKDCLDKLVPLDDNDPEGEDFEDEDEEEEGEDGNELESKLGSLKIKQGEE

Variants of: B1
Conditions: with kn12c_arath KIN12C

Row | Variant | effect of a mutation on the interaction
1 | MDHSAKTTQNRVLSVKMAAPSKSTRLMLVERMTKNITTPSIFSRKYGLLSVEEAEQDAKRIEDLAFATANKHFQNEPDGDGTSAVHVYAKESSKLMLDVIKRGPQEESEVEVSKDGDVFFDISGGSRAFIEEEEARDLLRPLADPRNSYTKIRFSNRSFGSEAAKFAASVLSSIKDQLTEVDLSDFVAGRPEAEALEVMNMFSSALEGSKLRYLNLSDNALGEKGIRAFASLINSQHDLEELYLMNDGISEDAARAVRELLPSTDKIRVLQFHNNMTGDEGATAIAEIVRECPSLEDFRCSSTRIGSEGGVALAEALEHCSHLKKLDLRDNMFGVEGGIALAKTLSVLTHLTEIYMSYLNLEDEGTEALSEALLKSAPSLEVLELAGNDITVKSTGNLAACIASKQSLAKLNLSENELKDEGTILIAKAVEGHDQLVEVDLSTNMIRRAGARALAQTVVKKNTFKLLNINGNFISEEGIDEVNDMFKDCLDKLVPLDDNDPEGEDFEDEDEEEEGEDGNELESKLGSLKIKQGEE [W18A;P19A] | decreasing interaction
